Results as given in the supplement of paper PMC12636428.

The sequences below were run on Saccharomyces cerevisiae (assay: transcriptional activation domain activity (GFP:mCherry ratio, weighted mean of sorted bins, harmonized to initial dataset scale) (arbitrary fluorescence ratio units); higher = stronger transcriptional activation). Conditions: beta-estradiol 1 µM; induction time 4 h.
Outline: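 The activation activity of each tile is the read-weighted mean of bin median fluorescence, averaged across its barcodes and mapped linearly onto the scale of the initial dataset. Tiles were fused to an estradiol-inducible synthetic transcription factor, barcoded, and integrated at URA3 in yeast diploids carrying a GFP reporter. Induction used 1 uM beta-estradiol in SC for 4 hours at 30 °C, after which cells were sorted into 8 GFP:mCherry bins, and any tile with fewer than 50 reads was dropped.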

Sequence	transcriptional activation domain activity
SFPIEGLYCLIKSLLKLKNLSLHGKIWWGDLKMLLPLLSKLDFWGIGELLLFD	67000
SFPIRHIEDKLRNKGHVKTGILSANDGVPPTPNLLDYDWNNLNITGYEWISSE	93900
SFRYHYGELRLSRLNKIHCITRFTWRDFVRGYMTTSTWYQDFFARNFAWLLAV	55900
SFSAYFIACCVVIHVTQLVGSPLYLFNKPLYYAYMARTKQSFGVLVTTITQWW	68900
SFSILYSRFAGPSIYMGMRNLLILLYVSMAIWIPHLIYFWLSVLSLCIAPFLF	37800
SFSLLALSFFFLHVLFSLIIAPCVWFWFFSWLWFWLDLSSPRTYCIHIWLIHP	39300
SFSLSVLSFFFFSIWLPLPPLSLSLSLFSPHLFPPLPFTLSLWVQWLYTFSYY	79300
SFSSIIILLALCLVLLAVFFYFPFFFCLFCPYVLCCHPIFPPTLSQVSILAYY	44700
SFSSYSSLPSFPSFPYFPSFPFLPFLPFSCVLFLLFLPFLHFLLLPSFPFFYL	70900
SFSVILFYFIFLISPGQKAAFVFPWSFFFFLFFFFFFFTFFYFRLFSANFVCV	45000
SFSVLNLNLGKIENDGNESNEDYLGNEKFYLNEILPDEESKLRWKRVFENSEN	52600
SFTLYTIGICGLCDQFGLFCWVHMSLLIIVLSSHFIVNNILEGLIWFWVPASL	31400
SFTNFLMALFGVLLGAIFLSIYTYYTFWRGCRSTILPCISSTWYKAFTILFYL	47600
SFTRRLILWNVCALGIIIVLASRRLLRCILLRKKKFDDTMEFSMLSLIFDLCV	71800
SFTSKLNNPQFLGSLDLEILEELEKLISAQEFSRNFTEDVDESLQSEIDLMNY	146000
SFVAYFSALWRGKQHRMTGYPIYDFFMGAELNPRMFGILDFKMFFEVRMPWYI	67400
SFVAYFSALWRGKQHRMTGYPVYDFFMGAELNPRMFGILDFKMFFEVRMPWYI	51000

Sequence	transcriptional activation domain activity
SFVRDVGFFIVSASFSLVFLWDGKLYFWECVTMVGFYVFYVIFVMAWHWWLGR	43100
SFWNTAFHPVYFNTTDLVLSFPFLFLPSFSSFFSFLFCIVIFTIVQRLYVFIS	97000
SGADEFDVGASIEPTFATPRLTRTSETGTSESTSRRPSERSRSRARVLGLPVG	38500
SGDADEDGNGHGTHCSGTIAGKKYGVAKKAHVYAVKVLRSNGSGSMSDVVKGV	9640
SGDADEDGNGHGTHCSGTVAGKKYGVAKKAHVYAVKVLRSNGSGTMSDVVKGV	42000
SGDADEDGNGHGTHCSGTVAGKKYGVAKKASVYAVKVLRSNGSGSMSDVVKGV	45000
SGDAVMKDAVEEAGAAAAEAKPEPEPKPEPKPKRKAPAKKAKIVAAVSAAIAN	26600
SGDPDEDGNGHGTHCSGTVAGKKYGVAKKANVYAVKVLRSNGSGSMSDVVKGV	19600
SGEATATPEKSKTPRKRKTKAEGDSADNGDADGSPKKKAGGRKKKADVVKEEM	23600
SGFPSVGFNFFLFFSMMQPAMFLVSLFFQSLFFLCLNTCVCFFGFNFFFLVHW	34800
SGFRDNRKDNRGRGRDRGNRRDNRGNDRNREREDKEKAESKDVKSEDAPVKTE	28100
SGGAPRGRGRGRREEKGRGRGRERGGRGRGGDRGRGRGRGRGVGGGSMGGGGG	15900
SGGEGTRRRASGRGRGRGRGRNGRGARAARGDGEKKEGETTEAAAPTSGETPA	34800
SGGGRRRDGGGRRAGGRRDGAGGGRGRGDRGGGGGGGGERGERGGRPKKTQEE	50900
SGGKTMVSGSFAGESGRLQGSGPFGRGGGRESREQAYDNGRAKIARLAHGLRL	22400
SGGKTVLQGAFAGESGRISSGGPFGHGRGKEGQEQAIDNGRQRIARLAHGLRL	23600
SGICRLTFSFSTLFFNPDPSFSFFLSFFFLFFFSFLLLSFLLNLFPFLDFFFF	24000
